Data: the DeepSol protein solubility set

Assay: soluble on expression in E. coli; label from the status in PepcDB or PDB records

Sequence	soluble on expression in E. coli
MSLDKLQRISEAIKSKKKLVVMFSGGVDSTLLAKLAREVLGKNAVALTIDSPVIPRKEIEEAKNLANLIGIRHEFIELNELKSRHLIENPPDRCYLCRKLRDNIVKNWARENGFDVIADGLNFSDLQDYRPGVKASTEDGIWHPFIDFEVTKEEIREYSKKLGLPTWDKPAMACLCSRFPYGFGLNEERVRMVEKAENFLRELGFREVRVRFFPYKTAVVEVGRDEMELLMGKRTDIVLALQKIGFSFVTLDLEGFASGKLNRTIEGMSKEGGSHHHHHH	soluble
MGHHHHHHSHMSSILPFTPPIVKRLLGWKKGEQNGQEEKWCEKAVKSLVKKLKKTGQLDELEKAITTQNVNTKCITIPRSLDGRLQVSHRKGLPHVIYCRLWRWPDLHSHHELRAMELCEFAFNMKKDEVCVNPYHYQRVETPVLPPVLVPRHTEIPAEFPPLDDYSHSIPENTNFPAGIEPQSNIPETPPPGYLSEDGETSDHQMNHSMDAGSPNLSPNPMSPAHNNLDLQPVTYCEPAFWCSISYYELNQRVGETFHASQPSMTVDGFTDPSNSERFCLGLLSNVNRNAAVELTRRHIGRGVRLYYIGGEVFAECLSDSAIFVQSPNCNQRYGWHPATVCKIPPGCNLKIFNNQEFAALLAQSVNQGFEAVYQLTRMCTIRMSFVKGWGAEYRRQTVTSTPCWIELHLNGPLQWLDKVLTQMGSPSIRCSSVS	soluble
MWLSSEELSAKKTACHVRNVESNKEFADSDIVASFVHNRPKDLKNLTFERHGKGGRKKAPIFSVKGDISEHVVEVGADVNCLDEGFDFAVALVDKRTGEATYRPARFYSFESKFSEDIEKIFSDKKESSSEEYKNDFSIGAEKWAEKRRQLTSNFGSSKKIKMDEAAQRRTINQETLDEMRKTAFASNSNVKTEDGAADVKLENITMMNKAESSILPPAVQTELSRDIYPISLFLEDIEIDAIESIATELMEKKKKEKLEAGIPECVTLIMYNEKTKQRAAAYLLLSTMIEILTKMGKQRQLLRKDLSELKMPDILRQKVQAQFFNDSTNEKGYTGRGAERIRLNVTDYDRFIAHTLALALTLAPEHKVPITPFQQALSYQPSKLEKMFQALGADLIRLDVASAQTLRSLRAAILLKPPSLEQKGPRKIIRR	not soluble
MSSDDYESIDTPRVASLADMNRLPTQSRHSSYSTDDDEDVTPTPSASNSAPKNTILDPLQAQFLHPNSENSDIDEPRVQLREKKKATRAQDATVSHFLEDQVPNQKFKRRSAERHSMLAGAADFASRRSPFHLSGANGSGRWTDLFSSSRFKRKQRQELNNVPSSSYSNNDYGTYAGTQSIGGFSIASNSTGESFALSGTEDEIREEFRKIMLDKGLPEADKIISNTPLDQMKMMIENSRKQDNQAKGRSPEWVVRVLGEILKTKNIPECKQDIVTVRVQLVGQGVSFLNKFAVEVHDESGRTGADLICCLYSLVLKRLRSSEVGSKYELDLIDFLQEIVRCVRTLINTHVGLVLVLRRNSPVYSLLIQTLCVLNRREQNDHEAAEIRAIRVDVVRTCYTLIFVQHDTLSTPIEMTGQQKMFMELSLIAKAESKRLNEPVSRFRPLISCIDFLESRDPKQGMYVLLMINMMINGVDRNISDDQMWTEETMWQARMRLRSEAAKDKLHKYIEKFTTSETVNSQIRDVAQNMLTEHNADLETLMGKLENVKGEYDTLDGCFELLAANSEATGTETVLLSILQLMTLTNEDMSTKRSYMKLIETAISDILLHRTPIDPQADYKFVFEVPVAEIIDKMQDEEMAKKVRQATSAKQEAVAMQGEYWKTLCDFQKEAEELRKHINDPKIPLPPPTKMNLSAPSTSAGGSSALPPITGGPPPPPGLPPITGGPPPPPPPGGLPPITGGPPPPPPPGGLPPISGGPPPPPPPPGGCPPPPPPPPPGGFKGGPPPPPPPGMFAPMAPVIPDYLPPKKVPKVDGPMRKFPWGAHTINPRDIPRESFWVGTNEEQLTSDRMFDRLRTKFATKPAANSGTLGGVLNSKKKVKTAQVIHDDKLLQKLGILQGSIKMSHSELKLAILEVNEKVLTVGFLEQLRSAMPVEKELIDKLRAVNKAQFEEMPEGEQFVTRLLQIQGLPLRLDLVLFKMRFSEVLNELKPAMSSVMEACEEVRASEGFRTFLKLVLATGNFMGGATKNYSSAYAFDMRMLTRLVDTKDVDNRHTLLHHLIEEMKRIDPRRARFALTDFHHCIESSRVNADEIRKTVQLTENNIKKLENCLKVYKIQGERDLFDEKMRPFHEKAVKEFSTVSSMCGKMKNDWESLVKYYAFNDKKYPMEEFFADIRTFSEQYSNAWKELDAEAEAKRKEAEFETQKRKQLQQSQQERKPLQERQAINRVPRTPAAMIRVSTAADKAGVLDELERATGNADFLQTLMSATNSRTPRSGLPARTRGGGRLGGGLDRQRSRHQNALGQLQDLTGCASEPVLSGQFARSRNVPQNDLQRQNMELPSSVKPTTALDRAKAFGVGLPIGQNELKVRVRRKGQPAVPVTNINGTSQISPTHKENDPTGSSSTSSGPASSNTATSSSSGTVVPSTDDLLARLNDF	not soluble
MPTPYHLNMAAPLRIQLTPEEDRLLLELSLDPRTHKKTRLWAMMVRLAAEGWTAPKIAQHFHKDRTTVYLVLRRFLREGLQGLAYRKPPGAPRKFTPEMAAFVEERLAEDRVWTAPQLAAALAERFGVRLAPKVVARHLRAMGYVWRRTRYVPLGKPTEEEVKAFAEEEEEAKRGRRRG	soluble
MGSDKIHHHHHHMSRHQNIPALSDVSSTNFSNIRLIATDMDGTLTRRGKFTTPLLQALEDLAAVDIKVLIVTGRSAGWVSGLSSLMPVAGAIAENGGLYFPPGNHKPVVLTPVSDLAKHRQHLATTFENLQTKFPQIQESADNRFRVTDWTFDVADLNQDELQTLDSLCQQMGWGFTYSNVQCHIKPQGQDKAVGLLQVLREYLPQYSPEQIVTVGDSPNDESLFERRYFPVSVGVANVLEYMNQLKYHPAYITNAAEGEGFCELSSYILKSLHIPS	not soluble
MQFEERLQQLVESDWSLDQSSPNVLVIVLGDTARKYVELGGLKEHVTTNTVAGHVASRERVSVVFLGRVKYLYMYLTRMQAQANGPQYSNVLVYGLWDLTATQDGPQQLRYLALCYGSASVCHLKLNSIQNRLLVACLPGYCDSGTILSDSCIVLHAIS	not soluble
MRASEVLQKCLPNSLSGMHALRERALLHAVEALLHGRRLTLMDIARSWPSALRVRAPLKAVDRLLSNRNLQVERSVIDHEMAHWLLRGAQPVIVIDWSDLKPDKSWCLLRAAVPVGGRTLTLLDMVVPGKQQGLEHHHHHH	soluble
PTRQVLQGSRCRLEPLTLAHASDLFAAHQLAPDARSWTWLLREPESNLAEFSAWVEQVATLADPIHFAVVDQQRGKAVGSLALMRIDIAHGVVEVGHVHFSPLLSRTAMATEAHWLLMQYVFDTLGYRRYEWKCNSLNIPSARAARRLGFQYEGRFRQALVSKGHNRDTDWFSVIDGEWPELDNAMRQWLAADNFTA	not soluble
MSLEYIIKNGIVYDPLNGINGEKMDICVKDGKIVESVSDNAKVIDASGCVVMPGGIDSHSHVAGAKVNVGRIFRPEDSKREIYAKKGLRTGTGFSVPSTYKTGYQYSEMGYTTVIEAAMPPLIARHTHEEFMETPQIDKAAMPLFGNNWMVLEYLKEGDIKACAAFVAWLLKAVKGFAIKIVNPGGTEAWGWGKNVHSLDDPVPYFDITPREIVRGLAEVNELLGLPHSIHVHPNNLGHPGNWETTLETMKCVEGVEAKPRVGERETSYYNTHCQFHSYGGTSWKDFESKAIEIAEYVNKSKHVVIDVGQVTLDETTTMTADGPMEYDLHMTNGLKWANCDVELETGSGVVPFIYSPKGPVYAVQWAIGLELFLNTNTDKVLLTTDHPNAGPFTRYPRVIAWLMSKKYRDEWLYNKVHKWAQQRSHVADADKEYDLYEIAKITRANQAKVLGLSETKGHLGVGAEADIAIYAIDPEEKDGKKIEKAFRYAKYVLKGGEVVVKDGNVVKEVFGDTIYVDVQVGEDLMNEVLKDVGEKFRRYYSVNLENYPVSDEYANSWRVIKIDATDINEGHHHHHH	not soluble
